Data: the supplement of paper PMC10065799, “High-throughput profiling of sequence recognition by tyrosine kinases and SH2 domains using bacterial peptide display” (eLife, 2023)

How the values were obtained:
AncSZ = test: phosphorylation enrichment, bacterial display (enrichment ratio); higher = better substrate or ligand; peptides without Tyr show the background
EPHB1 = EPHB1 (UniProt P54762); test: as above
EPHB2 = EPHB2 (UniProt P29323); test: as above
FGFR1 = FGFR1 (UniProt P11362); test: as above
MERTK = MERTK (UniProt Q12866); test: as above
Fes = Fes (UniProt P07332); test: as above
Fyn = Fyn (UniProt P06241); test: as above
c-Src = test: as above
c-Abl (mouse) = test: as above
Fer (mouse) = test: as above
FGFR3 = FGFR3 (UniProt P22607); test: as above
Hck = Hck (UniProt P08631); test: as above
Jak2 = Jak2 (UniProt O60674); test: as above
SHP2-C SH2 = test: SH2 binding enrichment of the phosphorylated peptide, bacterial display (enrichment ratio); higher = better substrate or ligand; peptides without Tyr show the background
Grb2 SH2 = Grb2 SH2 (UniProt P62993); test: as above
c-Src SH2 = test: as above
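Wherever SH2 binding enrichment of the phosphorylated peptide, bacterial display is given: peptide library displayed on the E. coli surface as eCPX fusions, selected cells deep-sequenced, score is each peptide's frequency after selection divided by its frequency in the input.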
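Wherever phosphorylation enrichment, bacterial display is given: 11-residue human phosphosite peptides and single-mutation variants displayed on the E. coli surface, counted by deep sequencing, each peptide's frequency after selection divided by its frequency in the unselected input library; frequency after pTyr selection over input frequency; kinase dosed for 20-30% of maximal phosphorylation in three min.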

Fes, sequence (P07332 whole entry, looked up): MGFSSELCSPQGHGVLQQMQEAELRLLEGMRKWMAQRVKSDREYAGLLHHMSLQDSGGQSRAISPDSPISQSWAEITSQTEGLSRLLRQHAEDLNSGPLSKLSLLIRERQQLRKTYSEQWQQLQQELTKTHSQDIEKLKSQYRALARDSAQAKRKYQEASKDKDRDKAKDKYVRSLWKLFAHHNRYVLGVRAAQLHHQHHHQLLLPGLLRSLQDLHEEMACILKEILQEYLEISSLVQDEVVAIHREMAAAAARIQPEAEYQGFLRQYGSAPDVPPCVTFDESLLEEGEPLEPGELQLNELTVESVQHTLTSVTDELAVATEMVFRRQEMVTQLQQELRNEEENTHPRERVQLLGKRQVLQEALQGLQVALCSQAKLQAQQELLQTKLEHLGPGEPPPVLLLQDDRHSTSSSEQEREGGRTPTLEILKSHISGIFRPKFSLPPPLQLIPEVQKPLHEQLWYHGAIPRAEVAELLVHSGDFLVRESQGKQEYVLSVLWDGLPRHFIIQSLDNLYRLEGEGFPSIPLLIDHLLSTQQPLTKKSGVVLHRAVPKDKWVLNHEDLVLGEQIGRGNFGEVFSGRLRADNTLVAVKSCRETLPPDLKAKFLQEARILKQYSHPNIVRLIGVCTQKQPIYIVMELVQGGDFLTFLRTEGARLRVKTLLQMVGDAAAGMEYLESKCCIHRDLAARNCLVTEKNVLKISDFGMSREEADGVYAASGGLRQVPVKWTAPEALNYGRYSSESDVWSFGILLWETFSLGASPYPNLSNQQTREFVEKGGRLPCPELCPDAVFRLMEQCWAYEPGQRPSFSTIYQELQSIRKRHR
EPHB1, sequence (P54762 whole entry, looked up): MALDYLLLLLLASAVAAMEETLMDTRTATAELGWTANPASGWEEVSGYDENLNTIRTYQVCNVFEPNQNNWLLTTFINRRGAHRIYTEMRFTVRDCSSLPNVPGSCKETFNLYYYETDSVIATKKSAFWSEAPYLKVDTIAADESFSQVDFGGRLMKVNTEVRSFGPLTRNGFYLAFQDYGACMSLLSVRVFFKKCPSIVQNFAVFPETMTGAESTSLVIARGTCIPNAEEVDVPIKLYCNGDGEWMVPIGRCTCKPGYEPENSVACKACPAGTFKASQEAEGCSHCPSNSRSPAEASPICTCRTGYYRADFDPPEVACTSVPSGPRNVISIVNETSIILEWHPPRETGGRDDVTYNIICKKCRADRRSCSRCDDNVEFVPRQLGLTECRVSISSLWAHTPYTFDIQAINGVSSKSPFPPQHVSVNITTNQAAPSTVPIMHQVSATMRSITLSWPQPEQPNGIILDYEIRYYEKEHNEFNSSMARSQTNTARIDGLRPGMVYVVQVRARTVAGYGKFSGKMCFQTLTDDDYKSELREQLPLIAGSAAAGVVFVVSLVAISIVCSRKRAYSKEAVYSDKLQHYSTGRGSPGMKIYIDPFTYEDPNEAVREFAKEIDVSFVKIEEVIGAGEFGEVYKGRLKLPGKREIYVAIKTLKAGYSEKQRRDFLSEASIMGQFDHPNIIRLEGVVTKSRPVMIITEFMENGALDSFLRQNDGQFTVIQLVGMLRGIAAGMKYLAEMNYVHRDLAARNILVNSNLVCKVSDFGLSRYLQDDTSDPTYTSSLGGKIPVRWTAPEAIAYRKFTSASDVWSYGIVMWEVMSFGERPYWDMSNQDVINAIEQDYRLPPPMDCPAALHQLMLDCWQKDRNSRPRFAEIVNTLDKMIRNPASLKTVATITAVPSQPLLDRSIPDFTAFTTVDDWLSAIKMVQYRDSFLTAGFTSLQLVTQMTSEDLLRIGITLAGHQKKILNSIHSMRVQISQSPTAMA
Grb2 SH2, sequence (P62993 whole entry, looked up): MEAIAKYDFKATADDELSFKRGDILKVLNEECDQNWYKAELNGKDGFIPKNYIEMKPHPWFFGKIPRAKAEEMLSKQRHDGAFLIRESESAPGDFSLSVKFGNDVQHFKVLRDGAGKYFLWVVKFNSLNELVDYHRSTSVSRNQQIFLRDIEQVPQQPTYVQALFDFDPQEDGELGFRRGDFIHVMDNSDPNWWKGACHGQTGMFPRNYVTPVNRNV
Jak2, sequence (O60674 whole entry, looked up): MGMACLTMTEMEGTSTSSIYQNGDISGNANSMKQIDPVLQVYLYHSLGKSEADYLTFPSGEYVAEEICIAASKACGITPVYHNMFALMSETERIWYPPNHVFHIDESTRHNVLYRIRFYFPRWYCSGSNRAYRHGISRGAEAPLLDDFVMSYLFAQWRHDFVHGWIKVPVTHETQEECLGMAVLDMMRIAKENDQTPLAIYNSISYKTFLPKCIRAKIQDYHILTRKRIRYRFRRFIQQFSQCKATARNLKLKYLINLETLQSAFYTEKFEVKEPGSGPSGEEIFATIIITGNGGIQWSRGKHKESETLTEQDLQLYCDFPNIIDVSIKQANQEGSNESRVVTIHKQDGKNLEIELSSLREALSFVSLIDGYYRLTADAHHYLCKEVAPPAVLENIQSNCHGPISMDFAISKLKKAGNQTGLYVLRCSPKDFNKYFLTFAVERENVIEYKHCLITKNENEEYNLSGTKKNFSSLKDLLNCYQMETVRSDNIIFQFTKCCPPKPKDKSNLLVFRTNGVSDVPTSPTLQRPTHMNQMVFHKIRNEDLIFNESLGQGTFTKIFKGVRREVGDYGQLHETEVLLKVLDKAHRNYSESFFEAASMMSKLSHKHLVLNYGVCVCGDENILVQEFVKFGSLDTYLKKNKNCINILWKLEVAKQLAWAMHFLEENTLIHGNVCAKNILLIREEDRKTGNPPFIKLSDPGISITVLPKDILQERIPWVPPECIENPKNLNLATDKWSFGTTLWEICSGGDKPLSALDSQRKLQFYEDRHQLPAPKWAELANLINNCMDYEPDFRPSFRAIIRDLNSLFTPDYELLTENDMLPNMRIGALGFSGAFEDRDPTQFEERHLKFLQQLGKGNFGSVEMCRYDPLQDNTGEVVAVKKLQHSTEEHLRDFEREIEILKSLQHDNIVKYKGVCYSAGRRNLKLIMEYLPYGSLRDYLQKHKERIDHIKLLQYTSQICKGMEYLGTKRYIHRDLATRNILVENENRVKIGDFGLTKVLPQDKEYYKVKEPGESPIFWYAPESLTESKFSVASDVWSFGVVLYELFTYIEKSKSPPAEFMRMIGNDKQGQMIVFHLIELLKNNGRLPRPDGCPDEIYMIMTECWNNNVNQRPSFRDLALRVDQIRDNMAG
FGFR3, sequence (P22607 whole entry, looked up): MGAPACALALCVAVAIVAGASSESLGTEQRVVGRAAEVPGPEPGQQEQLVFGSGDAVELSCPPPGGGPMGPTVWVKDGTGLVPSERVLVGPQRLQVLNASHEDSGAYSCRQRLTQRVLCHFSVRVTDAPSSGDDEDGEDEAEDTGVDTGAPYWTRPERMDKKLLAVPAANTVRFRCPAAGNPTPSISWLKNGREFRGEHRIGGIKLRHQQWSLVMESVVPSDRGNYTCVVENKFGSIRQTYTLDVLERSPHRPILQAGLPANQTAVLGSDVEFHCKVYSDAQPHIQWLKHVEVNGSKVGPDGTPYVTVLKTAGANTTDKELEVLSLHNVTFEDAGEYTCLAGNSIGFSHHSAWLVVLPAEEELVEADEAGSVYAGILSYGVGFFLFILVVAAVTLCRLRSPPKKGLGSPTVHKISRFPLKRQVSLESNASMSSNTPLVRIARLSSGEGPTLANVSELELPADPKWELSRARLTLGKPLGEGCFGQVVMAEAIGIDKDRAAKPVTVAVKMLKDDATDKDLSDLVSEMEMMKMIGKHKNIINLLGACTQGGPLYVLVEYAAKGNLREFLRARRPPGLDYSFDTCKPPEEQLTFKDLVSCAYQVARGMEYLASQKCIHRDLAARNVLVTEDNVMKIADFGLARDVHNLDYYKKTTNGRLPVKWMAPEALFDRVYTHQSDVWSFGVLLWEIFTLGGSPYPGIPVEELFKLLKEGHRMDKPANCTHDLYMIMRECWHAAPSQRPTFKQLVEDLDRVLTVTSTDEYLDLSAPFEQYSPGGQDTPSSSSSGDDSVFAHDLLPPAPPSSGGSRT
FGFR1, sequence (P11362 whole entry, looked up): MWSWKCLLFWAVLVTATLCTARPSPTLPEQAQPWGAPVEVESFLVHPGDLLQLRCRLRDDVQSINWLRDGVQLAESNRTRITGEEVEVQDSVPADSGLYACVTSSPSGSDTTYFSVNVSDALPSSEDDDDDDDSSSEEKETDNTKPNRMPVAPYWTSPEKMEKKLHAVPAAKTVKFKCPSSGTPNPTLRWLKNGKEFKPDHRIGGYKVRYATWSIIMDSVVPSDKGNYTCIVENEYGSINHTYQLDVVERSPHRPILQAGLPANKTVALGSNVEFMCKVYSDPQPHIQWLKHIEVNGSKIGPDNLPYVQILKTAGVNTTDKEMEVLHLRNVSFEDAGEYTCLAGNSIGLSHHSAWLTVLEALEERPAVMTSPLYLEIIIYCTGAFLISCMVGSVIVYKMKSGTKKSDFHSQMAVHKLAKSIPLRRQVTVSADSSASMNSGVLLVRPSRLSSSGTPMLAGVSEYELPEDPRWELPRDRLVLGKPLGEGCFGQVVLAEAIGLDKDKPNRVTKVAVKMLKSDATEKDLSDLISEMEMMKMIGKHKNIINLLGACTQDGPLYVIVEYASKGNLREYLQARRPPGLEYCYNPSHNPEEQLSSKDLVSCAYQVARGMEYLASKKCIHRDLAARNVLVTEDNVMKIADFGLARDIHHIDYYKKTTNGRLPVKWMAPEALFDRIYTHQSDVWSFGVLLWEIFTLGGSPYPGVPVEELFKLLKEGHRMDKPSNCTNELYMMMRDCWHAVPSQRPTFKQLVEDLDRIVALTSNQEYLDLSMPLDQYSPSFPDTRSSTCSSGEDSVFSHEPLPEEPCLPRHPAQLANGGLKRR

Row | Sequence | phosphorylation enrichment (AncSZ) | phosphorylation enrichment (EPHB1) | phosphorylation enrichment (EPHB2) | phosphorylation enrichment (FGFR1) | phosphorylation enrichment (MERTK) | phosphorylation enrichment (Fes) | phosphorylation enrichment (Fyn) | phosphorylation enrichment (c-Src) | phosphorylation enrichment (c-Abl (mouse)) | phosphorylation enrichment (Fer (mouse)) | phosphorylation enrichment (FGFR3) | phosphorylation enrichment (Hck) | phosphorylation enrichment (Jak2) | SH2 binding enrichment (SHP2-C SH2) | SH2 binding enrichment (Grb2 SH2) | SH2 binding enrichment (c-Src SH2)
1 | TFACSYTPVKA [FLNB_Y708_YF] | 1.16 | 0.527 | 0.577 | 0.582 | 0.342 | 1.08 | 0.444 | 0.536 | 0.961 | 0.449 | 0.653 | 0.562 | 1.09 | 1.39 | 0.481 | 0.587
2 | TFGVVYRAKDK [CDK11B_Y453_YF] | 0.831 | 0.428 | 0.592 | 0.333 | 0.396 | 0.798 | 0.563 | 0.513 | 0.584 | 0.372 | 0.506 | 0.481 | 0.703 | 0.64 | 0.808 | 0.426
3 | TFSPPYFHRNC [HGD_Y333_R330S_YF] | 1.81 | 0.268 | 1.08 | 0.535 | 0.718 | 0.808 | 0.363 | 1.01 | 0.878 | 0.483 | 0.83 | 0.539 | 2.21 | 1.18 | 8.96 | 2.42
4 | TGQEDYDRLRP [RAC1_Y64_A59T] | 1.34 | 0.781 | 0.94 | 0.754 | 0.498 | 1.17 | 0.756 | 0.603 | 0.778 | 0.563 | 0.732 | 0.836 | 1.02 | 0.746 | 0.74 | 0.528
5 | TGSFTYEAVEL [MTMR14_Y462] | 1.77 | 6.56 | 3.89 | 0.466 | 1.87 | 1.24 | 2.21 | 2.45 | 0.801 | 13.1 | 0.711 | 1.78 | 1.31 | 0.768 | 0.664 | 0.653
6 | TINPIYEHVGF [CHN1_Y143_YF] | 1.02 | 19.7 | 23.4 | 0.739 | 11.7 | 9.52 | 12.6 | 9.42 | 12.5 | 18.2 | 0.802 | 11.6 | 1.18 | 0.69 | 0.83 | 0.518
7 | TKHTFYKQPMF [GBA_Y451_D448H] | 1 | 0.429 | 0.558 | 0.539 | 0.441 | 0.769 | 0.478 | 0.377 | 0.522 | 0.44 | 0.482 | 0.475 | 0.49 | 1.13 | 1.04 | 0.941
8 | TLCLCYKEIEE [ATP8B1_Y658] | 1.63 | 1.05 | 0.825 | 0.592 | 0.618 | 1.96 | 0.521 | 0.624 | 0.886 | 0.704 | 1.05 | 0.733 | 1.36 | 0.937 | 0.921 | 1.29
9 | TLNFFYQQVKS [PTK2_Y148] | 1.15 | 0.68 | 0.658 | 0.471 | 0.366 | 1.15 | 0.516 | 0.361 | 0.606 | 0.575 | 0.849 | 0.471 | 1 | 0.768 | 0.802 | 0.885
10 | TLQSMYGCDMG [HLA-B_Y123_V127M] | 0.939 | 0.709 | 0.823 | 0.8 | 0.63 | 1.43 | 0.597 | 0.689 | 1.15 | 0.599 | 0.955 | 0.609 | 1.2 | 0.485 | 0.916 | 0.757
11 | TLSGIYQYIIA [FOXL2_Y81] | 1.54 | 12.9 | 12.2 | 11.1 | 9.32 | 5.1 | 6.05 | 4.81 | 4.23 | 13.9 | 8.01 | 7.53 | 1.09 | 1.87 | 1.22 | 1.49
12 | TNFRFYLRSLE [MTM1_Y71_L70F_YF] | 1.3 | 0.66 | 0.611 | 0.548 | 0.381 | 1.64 | 0.397 | 0.455 | 0.931 | 0.558 | 0.964 | 0.633 | 1.57 | 0.89 | 0.772 | 0.536
13 | TNQVICLNPPI [DYNC1H1_Y970_Y970C] | 0.842 | 0.589 | 0.54 | 0.53 | 0.405 | 0.921 | 0.459 | 0.446 | 1.17 | 0.458 | 0.62 | 0.495 | 0.892 | 0.619 | 0.788 | 0.477
14 | TPGPNYCPGYN [USH2A_Y463_R464C] | 0.694 | 0.468 | 0.551 | 0.504 | 0.379 | 1.17 | 0.623 | 0.35 | 0.429 | 0.497 | 0.616 | 0.466 | 0.853 | 0.501 | 1.68 | 0.937
15 | TQRPHYKGGGG [TYROBP_Y112_Y111H] | 0.558 | 0.349 | 0.587 | 0.45 | 0.433 | 0.686 | 0.496 | 0.454 | 0.97 | 0.565 | 0.76 | 0.535 | 0.676 | 1.39 | 1.55 | 1.27
16 | TRDVNYGWIIH [MT-CYB_Y75_R80H] | 1.06 | 0.938 | 1.14 | 0.703 | 1.98 | 1.11 | 0.508 | 0.524 | 0.908 | 4.76 | 0.736 | 0.523 | 1.15 | 1.23 | 0.99 | 0.522
17 | TRNREYDDIDD [TTYH2_Y424_D423E] | 0.904 | 0.53 | 0.496 | 0.548 | 0.559 | 0.789 | 0.585 | 0.581 | 0.54 | 0.533 | 0.693 | 0.609 | 0.57 | 0.358 | 0.589 | 0.545

Row | Sequence | phosphorylation enrichment (AncSZ) | phosphorylation enrichment (EPHB1) | phosphorylation enrichment (EPHB2) | phosphorylation enrichment (FGFR1) | phosphorylation enrichment (MERTK) | phosphorylation enrichment (Fes) | phosphorylation enrichment (Fyn) | phosphorylation enrichment (c-Src) | phosphorylation enrichment (c-Abl (mouse)) | phosphorylation enrichment (Fer (mouse)) | phosphorylation enrichment (FGFR3) | phosphorylation enrichment (Hck) | phosphorylation enrichment (Jak2) | SH2 binding enrichment (SHP2-C SH2) | SH2 binding enrichment (Grb2 SH2) | SH2 binding enrichment (c-Src SH2)
18 | TRRSSYEDSSL [HNF4A_Y144] | 1.2 | 0.379 | 0.529 | 0.42 | 0.5 | 0.707 | 0.53 | 0.447 | 0.402 | 0.447 | 0.57 | 0.457 | 0.465 | 0.531 | 0.822 | 0.51
19 | TSRVLYPNDNF [PYGM_Y281_I276T] | 0.64 | 0.456 | 0.424 | 0.545 | 0.408 | 0.7 | 0.456 | 0.415 | 0.51 | 0.432 | 0.436 | 0.558 | 0.638 | 0.771 | 0.922 | 0.643
20 | TSSSRYFDEPV [ARFGAP3_Y356_S355R] | 0.792 | 0.508 | 0.395 | 0.597 | 0.391 | 0.839 | 0.511 | 0.399 | 0.447 | 0.417 | 0.688 | 0.495 | 0.61 | 0.745 | 0.725 | 0.475
21 | TTHRGYDSDNP [MMUT_Y146_A141T] | 0.744 | 0.685 | 0.532 | 0.542 | 0.53 | 0.859 | 0.685 | 0.389 | 0.642 | 0.423 | 0.823 | 0.665 | 0.699 | 0.595 | 1.02 | 0.413
22 | TVEDHYYEGGI [TKT_Y563] | 1.27 | 0.789 | 0.583 | 1.72 | 0.574 | 1.23 | 0.589 | 0.588 | 0.745 | 0.636 | 1.9 | 0.565 | 1.06 | 0.482 | 0.569 | 3.79
23 | TVLWRYTGTRP [UGT1A1_Y337] | 1.17 | 0.432 | 0.582 | 0.495 | 0.317 | 1.01 | 0.411 | 0.344 | 0.633 | 0.423 | 0.606 | 0.557 | 0.779 | 0.724 | 0.707 | 0.588
24 | TYACSYTPVKA [FLNB_Y708] | 0.991 | 0.567 | 0.868 | 0.877 | 3.02 | 1.06 | 1.25 | 2.4 | 1.78 | 0.78 | 0.627 | 1.32 | 1.24 | 7.09 | 0.85 | 1.54
25 | VAFVFYKSIGP [ADGRL4_Y302_YF] | 1.2 | 0.663 | 0.571 | 0.543 | 0.422 | 1.39 | 0.501 | 0.407 | 1.04 | 0.595 | 0.781 | 0.424 | 0.868 | 0.874 | 0.897 | 0.553
26 | VARAVYQAVLS [SMG1_Y549_H546R] | 0.999 | 0.526 | 0.567 | 0.468 | 0.758 | 0.97 | 1.07 | 1.36 | 0.75 | 1.33 | 0.585 | 2.26 | 0.722 | 0.834 | 0.708 | 1
27 | VATRWYPSPEL [CDKL5_Y177_R178P] | 0.891 | 0.577 | 0.517 | 0.437 | 0.522 | 0.953 | 0.439 | 0.473 | 0.696 | 0.289 | 0.541 | 0.504 | 0.763 | 0.794 | 1.23 | 0.907
28 | VAVTKYCKEEF [ATP7B_Y1078_L1083F] | 0.887 | 0.605 | 0.568 | 0.563 | 0.357 | 1.05 | 0.459 | 0.462 | 0.707 | 0.487 | 0.624 | 0.458 | 0.959 | 0.598 | 0.862 | 0.501
29 | VDDQIYYFRKP [PBRM1_Y1289_E1287Q] | 2.93 | 1.08 | 0.98 | 8.8 | 5.41 | 1.23 | 8.3 | 6.28 | 12.8 | 1.75 | 7.78 | 8.88 | 2.07 | 0.825 | 0.746 | 0.487
30 | VDGSVYKLPPS [GCK_Y413_H416P] | 0.728 | 0.429 | 0.563 | 0.523 | 0.5 | 0.795 | 2.81 | 1.46 | 0.661 | 0.514 | 0.492 | 0.61 | 0.598 | 0.525 | 0.744 | 0.426
31 | VECHLYFTQPK [AKR1D1_Y199_P198L] | 1.42 | 0.717 | 0.663 | 0.493 | 0.556 | 1.33 | 0.588 | 0.91 | 1.02 | 0.645 | 0.946 | 0.631 | 1.58 | 0.867 | 0.801 | 0.374
32 | VERIHYIGQNE [HMOX2_Y140] | 0.617 | 0.351 | 0.47 | 0.555 | 0.522 | 0.638 | 0.494 | 0.368 | 0.344 | 0.434 | 0.381 | 0.453 | 0.553 | 0.972 | 1.08 | 0.437
33 | VGAKTYKMSMA [CPS1_Y309_A304V] | 0.645 | 0.437 | 0.326 | 0.367 | 0.428 | 0.524 | 0.399 | 0.498 | 0.57 | 0.268 | 0.382 | 0.307 | 0.511 | 0.421 | 0.725 | 0.408
